Source: patent publication US20210395361A1 (Alector, published 2021)
Where a chain is given by its changes, count along the chain named. One block for each binder: values may come before it.

Experiments:
[1] = target: T1, Histidine-tagged human Siglec-5 (NovoProtein) (human, UniProt O15389 17-434, limits assumed); assay: array SPR, antibody immobilized, His-tagged human Siglec-5 (0-500 nM) in solution; apparent affinity
T1 construct: Bought soluble protein; also called His-tagged human Siglec-5; not shown: histidine tag
T1 sequence: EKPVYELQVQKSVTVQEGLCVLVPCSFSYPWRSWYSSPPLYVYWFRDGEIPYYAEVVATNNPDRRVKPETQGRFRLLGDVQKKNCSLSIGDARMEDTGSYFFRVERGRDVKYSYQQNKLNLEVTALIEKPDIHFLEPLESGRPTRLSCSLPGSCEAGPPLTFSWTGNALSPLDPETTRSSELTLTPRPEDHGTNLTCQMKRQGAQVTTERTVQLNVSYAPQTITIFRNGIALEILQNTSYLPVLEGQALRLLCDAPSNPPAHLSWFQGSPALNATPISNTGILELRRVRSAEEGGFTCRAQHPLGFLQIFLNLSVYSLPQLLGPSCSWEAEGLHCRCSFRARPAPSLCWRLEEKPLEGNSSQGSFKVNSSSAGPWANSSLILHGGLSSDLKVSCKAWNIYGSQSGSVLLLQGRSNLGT
Description: The apparent binding affinities of the anti-Siglec-5 antibodies were measured by array surface plasmon resonance (SPR), according to standard techniques (Abdiche, et al. (2016) MAbs 8:264-277). Briefly, anti-Siglec-5 antibodies were immobilized on a HC 30M chip at four different densities, at antibody concentration of 10 μg/mL, 2.5 μg/mL, 0.63 μg/mL, and 0.16 μg/mL. Varying concentrations (0-500 nM) of Histidine-tagged human Siglec-5 or cynomolgus Siglec-5 (NovoProtein) were then bound to the captured anti-Siglec-5 surface (5 min injection time, 15 min dissociation time) in HBS-EP⁺/1 mg/mL BSA running buffer. Kinetic analysis was performed using Carterra software to extract association and dissociation rate constants (kₐ and kd, respectively) for each antibody. Apparent affinity constants (KD) were calculated from the ratio kd/kₐ. None of the anti-Siglec-5 antibodies bound to cynomolgus Siglec-5 protein.

[2] = target: T2, human Siglec-14 (human, UniProt Q08ET2 17-396); assay: FACS, CHO cells stably transfected with human Siglec-14 (CHO-S14), fluorescent secondary antibody; y-axis Binding (Fold over background); antibody concentration not shown
T2 construct: also called CHO-S14; CHO-S hSiglec-14
T2 sequence: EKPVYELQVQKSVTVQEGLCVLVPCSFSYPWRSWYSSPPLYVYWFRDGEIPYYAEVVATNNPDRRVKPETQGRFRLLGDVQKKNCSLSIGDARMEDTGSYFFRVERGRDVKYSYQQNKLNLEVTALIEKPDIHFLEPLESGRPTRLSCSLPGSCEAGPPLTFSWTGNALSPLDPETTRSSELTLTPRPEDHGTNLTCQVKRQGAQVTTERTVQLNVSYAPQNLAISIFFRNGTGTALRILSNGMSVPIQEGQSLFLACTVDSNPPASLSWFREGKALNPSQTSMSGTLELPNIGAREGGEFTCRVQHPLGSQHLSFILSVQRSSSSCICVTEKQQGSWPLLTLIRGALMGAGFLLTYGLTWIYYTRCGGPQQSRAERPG
Description: The anti-Siglec-5 antibodies were evaluated for their ability to bind to CHO cells which were stably transfected with human Siglec-5 (CHO-S5) or human Siglec-14 (CHO-S14). The anti-Siglec-5 antibodies were also evaluated for their ability to bind to primary human neutrophils. Cells were incubated with various dilutions of the anti-Siglec-5 antibodies for 30 minutes on ice in the dark, followed by a 30-minute incubation with a fluorescently-conjugated anti-human IgG secondary antibody. Cells were washed twice in FACS buffer (PBS+2% FBS, 2 mM EDTA), and flow cytometry was performed on a BD FACS Canto. Data were analyzed using FlowJo software (Ashland, Oreg.). In the figures, “hIgG1” and “mIgG1” refer to isotype control antibodies, and “S5/14 1A5” refers to a commercially available antibody that binds both Siglec-5 and Siglec-14 (BioLegend, clone 1A5).

[3] = target: T3, human Siglec-5 (human, UniProt O15389 17-551); assay: FACS titration, CHO-S hSiglec-5 cells, anti-human IgG secondary; y-axis Fold over isotype, x-axis Antibody (nM), log scale
T3 construct: also called CHO-S5; CHO-S hSiglec-5
T3 sequence: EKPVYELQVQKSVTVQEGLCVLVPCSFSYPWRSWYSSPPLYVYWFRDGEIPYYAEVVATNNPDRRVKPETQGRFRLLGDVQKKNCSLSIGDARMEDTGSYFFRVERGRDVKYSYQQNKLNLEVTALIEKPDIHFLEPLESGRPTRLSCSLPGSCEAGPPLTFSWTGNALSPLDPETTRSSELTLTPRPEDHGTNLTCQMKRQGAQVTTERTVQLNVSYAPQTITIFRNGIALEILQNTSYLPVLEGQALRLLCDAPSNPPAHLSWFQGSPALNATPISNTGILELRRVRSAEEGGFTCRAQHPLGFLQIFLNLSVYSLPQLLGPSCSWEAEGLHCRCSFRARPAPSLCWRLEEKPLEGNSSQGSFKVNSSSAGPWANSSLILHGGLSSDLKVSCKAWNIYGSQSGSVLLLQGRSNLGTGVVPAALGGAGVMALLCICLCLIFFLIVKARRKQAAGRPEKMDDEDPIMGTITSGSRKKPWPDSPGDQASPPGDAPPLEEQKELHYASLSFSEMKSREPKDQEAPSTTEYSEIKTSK
Description: (§1) CHO cells were incubated with increasing concentrations of anti-Siglec-5 antibody, as indicated on the x-axis of each plot. The binding of anti-Siglec-5 antibodies to the surface of CHO cells was then measured by FACS. The y-axis provides the binding of each indicated anti-Siglec-5 antibody to the surface of CHO cells relative to hIgG1 isotype control antibodies. S5-174-H2L1 refers to antibody S5-174-H3; S5-174-H3L1 refers to antibody S5-174-H5; S5-174-H3L2 refers to antibody S5-174-H6; S5-174-H4L1 refers to antibody S5-174-H7; S5-174-H4L2 refers to antibody S5-174-H8; S5-G03-H2L1 refers to antibody S5-G-03-H4; S5-G03-H2L2 refers to antibody S5-G-03-H5; S5-G03-H3L1 refers to antibody S5-G-03-H7; S5-G03-H3L2 refers to antibody S5-G-03-H8; and S5-G03-H3L3 refers to antibody S5-G-03-H9.
(§2) Various anti-Siglec-5 antibodies of the present disclosure were evaluated for their ability to bind to CHO cells which were stably transfected with human Siglec-5 (CHO-S5) or human Siglec-14 (CHO-S14). Cells were incubated with various dilutions of anti-Siglec-5 antibodies for 30 minutes on ice in the dark, followed by a 30-minute incubation with a fluorescently conjugated anti-human IgG secondary antibody. Cells were then washed twice in FACS buffer (PBS+2% FBS, 2 mM EDTA), and flow cytometry was performed on a BD FACS Canto. Data were analyzed using FlowJo software (Ashland, Oreg.). In FIG. 9, hIgG1 refers to isotype control antibodies; S5-174-H2L1 refers to antibody S5-174-H3; S5-174-H3L1 refers to antibody S5-174-H5; S5-174-H3L2 refers to antibody S5-174-H6; S5-174-H4L1 refers to antibody S5-174-H7; S5-174-H4L2 refers to antibody S5-174-H8; S5-G03-H2L1 refers to antibody S5-G-03-H4; S5-G03-H2L2 refers to antibody S5-G-03-H5; S5-G03-H3L1 refers to antibody S5-G-03-H7; S5-G03-H3L2 refers to antibody S5-G-03-H8; and S5-G03-H3L3 refers to antibody S5-G-03-H9.

[4] = target: T2, human Siglec-14; assay: FACS titration, CHO-S hSiglec-14 cells, anti-human IgG secondary; y-axis Fold over isotype, x-axis Antibody (nM), log scale; the same flat line on CHO-S Parental cells
Description: as §1, §2

- Kd [1]: 1.1 nM
- koff [1]: 0.00051 s⁻¹
- kon [1]: 470000 M⁻¹ s⁻¹
- binding result [2]: no binding
B2: S5-176 (antibody, V domains shown)
VH: QAYLQQSGPELVKPGASVKVSCKASGYSFTDYNIYWVKQSHGKSLEWIGYFDPYNGGTNYNQRFKDKATLTVDKSSSTAFMQLNSLTSEDSAVYYCAREGYGYDDREWFAYWGQGTLVTVSA
VL: DIVMTQSPSSLAASVGEKVTMSCKSSQSLLYSTNQMTYLAWYQQKPGQSPKLLIFWASTRESGVPDRFTGSGSGTDFTLTISSVKAEDLAVYYCHQFYSYPFTFGSGTRWEIK
notes: Mouse-derived variable domains; expressed in mammalian cells as full antibody; hIgG1 isotype control

- Kd [1]: 1.7 nM
- koff [1]: 0.00043 s⁻¹
- kon [1]: 250000 M⁻¹ s⁻¹
- binding result [2]: no binding
B4: S5-174 (antibody, V domains shown)
VH: QAYLQQSGAELVKPGTSVKLSCKASGYTFTNYWMHWVKQRPGQGLEWVGEIDPSDGYVTYNQNFKGKATLTVDRSSSTAYMQLSSLTSEDSAVYYCAGVYYGNSIYYAMDYWGQGTSVTVSS
VL: DIQMTQTRNFMSTSVGDRVNITCKATQDVGTAVAWYQVKPGQSPKLLIYWTSTRHTGVPDRFTGSGSGTDFTLTIKNVQSEDLADYFCQQYRSYPFTFGSGTKLEIK
notes: as for B2

- Kd [1]: ≤ 0.42 nM
- koff [1]: ≤ 1e-05 s⁻¹
- kon [1]: 24000 M⁻¹ s⁻¹
- binding result [2]: no binding
B5: S5-G-07 (antibody, V domains shown)
VH: QAYLQQSGAELARPGASVKMSCKASGYTFSSYTMYWVKQRPGQGLEWIGYINPSSGYTEYNQKFKDKATLTADKSSSTAYMQLISLTSEDSAVYYCARSDSKGDYWGQGTTLTVSS
VL: DVVMTQSPSSLSASLGERVSLTCRASQDIGNSLNWLQQEPDGTIKRLISATSSLDSGVPKRFSGSRSGSDYSLTISSLESEDFVDYYCLQYASSPLTFGAGTKLELK
notes: Mouse-derived variable domains; expressed in mammalian cells as full antibody; hIgG1 isotype control; also called SG-5-07

- Kd [1]: 79 nM
- koff [1]: 0.00068 s⁻¹
- kon [1]: 8600 M⁻¹ s⁻¹
- binding result [2]: no binding
B7: S5-G-10 (antibody, V domains shown)
VH: QAYLQQSGAELVKPGASVKLSCKASGYIFTEYTIHWVKQRSGQGLEWIGWFYPGSGSIKYNEKFKDKATLTADKSSSTVYMELSRLTSEDSAVYFCATHERAAQAAWSAYWGQGTLVTVSA
VL: DVQMNQSPASLSASVGETVTITCRASGNIHNYLAWYQQKQGKSPQLLVYNAKTLTDGVPSRFSGSGSGTQYSLKINTLQPEDFGSYYCQHFWSTPYTFGGGTKLEMK
notes: as for B2

- Kd [1]: 15 nM
- koff [1]: 0.00045 s⁻¹
- kon [1]: 29000 M⁻¹ s⁻¹
- binding result [2]: no binding
B8: S5-175 (antibody, V domains shown)
VH: QAYLQQSGAVLARPGASVRMSCKASGYSFTSYYMHWVKQRPGQGLEWIGAIYPGNSDTSYNQKFKGKAKLTAVTSASTAYMEVSSLTNEDSAVYYCTPLVRPRPYGMDYWGQGTSVTVSS
VL: DVVLTQSTSSLSASLGDRVTISCRASQDISNYLNWYQQKPDGTVKLLIYYTSRLHSGVPSRFSGSGSGTDYSLTISNLEQEDIATYFCQQGNTLPWTFGGGTKLEIK
notes: as for B2

More lines, now with the values behind:

B1: S5-172 (antibody, V domains shown)
VH: B2 VH with F29L, I34M, F51I, P53S, N59R, R63K, D66G, Q82H, Y101F
VL: DIVLTQTPLSLAVSVGEKVTMNCKSSQSLLYSTNQMTFLAWYQQKPGQSPKLLIYWASTRESGVPDRFTGSGSGTDFTLTISSVKAEDLAIYYCQQFYTYPFTFGSGTKLEIR
notes: as for B2
- Kd [1]: 1.5 nM
- koff [1]: 0.00053 s⁻¹
- kon [1]: 350000 M⁻¹ s⁻¹
- binding result [2]: no binding

B3: S5-190 (antibody, V domains shown)
VH: B2 VH with F29L, I34M, F51I, P53S, N59R, R63K, D66G, Q82H, Y101F
VL: DIQMTQTPSSLAVSVGEKVTLSCKSSQSLLYSTNQMNFLAWYQQKPGQSPKLLIYWASTRESGVPDRFAGSGSGTDFTLTISSVKAEDLAVYYCQQFYSYPFTFGSGTELEIK
notes: Mouse-derived variable domains; same VH entry as S5-172; expressed in mammalian cells as full antibody; hIgG1 isotype control
- Kd [1]: 0.85 nM
- koff [1]: 0.00046 s⁻¹
- kon [1]: 540000 M⁻¹ s⁻¹
- binding result [2]: no binding

B6: S5-G-03-H9 (antibody, V domains shown)
VH: EVQLLQSGGGLVQPGGSLRLSCAASGFTFSTYGMSWVRQAPGKGLELVATINSNGDNTYYADSVKGRFTISRDNSKNTLYLQMNSLRAEDTAVYYCARAWPSITTVFAPYTLDYWGQGTLVTVSS
VL: DIQLTQSPSSLSASVGDRVTMTCRASSSVSSSFLHWYQQKPGKAPKLWIYSTSNLASGVPSRFSGSGSGTDYTLTISSVQPEDFATYYCQQYSGYPLTFGQGTKLEIK
notes: Humanized variant of S5-G-03; also called S5-G03-H3L3
- binding result [3]: binds
- binding result [4]: no binding (tested: last point between 1 and 10 nM)
